Measurements from patent US20040002124A1 (MUNIN, published 2004).
Where no end group is shown, it is not given here.

Target: T1, αVβ3 integrin purified from HUVE cell lysates (human, UniProt P06756 31-1048; P05106 27-788)
T1 construct: mature; Detergent-solubilised native heterodimer, coated on plates; also called vitronectin receptor; immobilized integrin
Experiment: affinity chromatography of HUVE cell lysate on RGDSPK Sepharose
Experimental: αVβ₃ integrin purification from HUVE cell lysates was done as described in Pytela et al., Meth. Enzynmol., 144:475-489 (1987). Briefly, 10⁸ cells were lysed in 1 ml of PBS containing 1 mM CaCl₂, 1 mM MgCl₂, 0.5 mM PMSF and 100 mM octylglucoside. […] The purity of the integrin was determined by SDS-PAGE under non-reducing conditions, followed by silver staining.

T1 sequence (P06756 31-1048, chain 1 of 2): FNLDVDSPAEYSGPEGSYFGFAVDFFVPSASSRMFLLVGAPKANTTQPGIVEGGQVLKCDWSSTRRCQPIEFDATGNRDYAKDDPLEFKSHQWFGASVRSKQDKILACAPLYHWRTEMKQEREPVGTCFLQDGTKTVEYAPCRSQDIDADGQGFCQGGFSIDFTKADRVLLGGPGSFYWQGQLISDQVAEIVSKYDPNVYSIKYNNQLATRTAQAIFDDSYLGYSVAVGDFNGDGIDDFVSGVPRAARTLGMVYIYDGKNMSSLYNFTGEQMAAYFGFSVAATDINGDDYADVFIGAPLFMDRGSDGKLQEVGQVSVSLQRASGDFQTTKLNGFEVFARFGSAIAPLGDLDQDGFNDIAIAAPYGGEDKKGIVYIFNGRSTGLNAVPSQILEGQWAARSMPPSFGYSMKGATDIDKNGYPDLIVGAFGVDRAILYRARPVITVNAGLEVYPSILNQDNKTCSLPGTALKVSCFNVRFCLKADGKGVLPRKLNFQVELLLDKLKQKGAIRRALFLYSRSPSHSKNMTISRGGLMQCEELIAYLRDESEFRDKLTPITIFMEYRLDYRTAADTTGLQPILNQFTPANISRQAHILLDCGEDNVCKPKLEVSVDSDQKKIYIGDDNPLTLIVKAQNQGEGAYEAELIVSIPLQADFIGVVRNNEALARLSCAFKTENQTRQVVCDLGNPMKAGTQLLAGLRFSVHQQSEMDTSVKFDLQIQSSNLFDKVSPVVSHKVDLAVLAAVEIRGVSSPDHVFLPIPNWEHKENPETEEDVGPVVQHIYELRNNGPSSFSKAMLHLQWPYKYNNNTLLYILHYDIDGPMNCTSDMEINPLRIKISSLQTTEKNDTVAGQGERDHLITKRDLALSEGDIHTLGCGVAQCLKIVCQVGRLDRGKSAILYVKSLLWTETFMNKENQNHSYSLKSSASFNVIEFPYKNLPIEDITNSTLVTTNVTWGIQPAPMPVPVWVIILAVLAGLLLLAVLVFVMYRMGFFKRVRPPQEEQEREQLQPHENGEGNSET
T1 sequence (P05106 27-788, chain 2 of 2): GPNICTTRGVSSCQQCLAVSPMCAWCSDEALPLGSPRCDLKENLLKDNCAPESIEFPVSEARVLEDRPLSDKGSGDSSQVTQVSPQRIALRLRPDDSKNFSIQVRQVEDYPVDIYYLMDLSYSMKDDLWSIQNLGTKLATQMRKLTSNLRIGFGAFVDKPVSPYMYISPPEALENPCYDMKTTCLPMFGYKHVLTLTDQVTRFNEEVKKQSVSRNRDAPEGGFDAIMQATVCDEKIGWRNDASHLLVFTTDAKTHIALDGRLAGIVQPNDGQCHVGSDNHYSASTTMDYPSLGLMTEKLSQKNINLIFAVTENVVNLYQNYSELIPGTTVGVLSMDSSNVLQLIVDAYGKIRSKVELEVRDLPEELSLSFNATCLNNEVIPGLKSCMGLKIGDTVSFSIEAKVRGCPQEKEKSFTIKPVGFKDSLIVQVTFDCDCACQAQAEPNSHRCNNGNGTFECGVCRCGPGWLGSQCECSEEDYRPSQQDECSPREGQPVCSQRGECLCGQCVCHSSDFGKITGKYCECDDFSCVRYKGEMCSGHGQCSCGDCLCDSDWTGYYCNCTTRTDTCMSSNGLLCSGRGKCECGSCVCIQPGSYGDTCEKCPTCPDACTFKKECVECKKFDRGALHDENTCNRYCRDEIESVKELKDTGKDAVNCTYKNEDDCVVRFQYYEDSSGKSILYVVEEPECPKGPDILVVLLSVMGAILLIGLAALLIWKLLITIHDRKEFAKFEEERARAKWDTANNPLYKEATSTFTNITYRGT

Q: Does RGDSPK (also: coupled to cyanogen bromide activated Sepharose CL 4B, also called RGDSPK peptide) [RGDSPK Sepharose] bind?
A: binds
